The record followed here is paper doi:10.1101/2022.06.01.494398, “Herpes simplex virus 1 protein pUL21 stimulates cellular ceramide transport by activating CERT” (bioRxiv, 2022).

First the molecules themselves.
B4: pUL21-H6 (natural protein)
chain: MELSYATTMHYRDVVFYVTTDRNRAYFVCGGCVYSVGRPCASQPGEIAKFGLVVRGTGPDDRVVANYVRSELRQRGLQDVRPIGEDEVFLDSVCLLNPNVSSELDVINTNDVEVLDECLAEYCTSLRTSPGVLISGLRVRAQDRIIELFEHPTIVNVSSHFVYTPSPYVFALAQAHLPRLPSSLEALVSGLFDGIPAPRQPLDAHNPRTDVVITGRRAPRPIAGSGAGSGGAGAKRATVSEFVQVKHIDRVGPAGVSPAPPPNNTDSSSLVPGAQDSAPPGPTLRELWWVFYAADRALEEPRADSGLTREEVRAVRGFREQAWKLFGSAGAPRAFIGAALGLSPLQKLAVYYYIIHRERRLSPFPALVRLVGRYTQRHGLYVPRPDDPVLADAINGLFRDALAAGTTAEQLLMFDLLPPKDVPVGSDVQADSTALLRFIESQRLAVPGGVISPEHVAYLGAFLSVLYAGRGRMSAATHTARLTGVTSLVLAVGDVDRLSAFDRGAAGAASRTRAAGYLDVLLTVRLARSQHGQSV

Data set [1] concerns the target B4. The data set can be described thus: ITC; mean of 6. In general terms: ITC needs no label: the signal is the heat of the interaction.
The target in data set [2] is T1, H6-pUL21C (HSV-1, UniProt P10205 275-535).
T1 chain: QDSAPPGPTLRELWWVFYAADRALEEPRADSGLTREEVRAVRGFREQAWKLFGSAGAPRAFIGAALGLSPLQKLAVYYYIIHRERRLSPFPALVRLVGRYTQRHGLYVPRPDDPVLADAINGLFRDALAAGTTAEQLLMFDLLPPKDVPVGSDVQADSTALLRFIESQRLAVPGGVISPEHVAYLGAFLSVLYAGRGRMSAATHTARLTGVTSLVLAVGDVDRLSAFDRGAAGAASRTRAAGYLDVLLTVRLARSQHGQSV
The data set can be described thus: ITC; representative titration.

Data set [3] addresses B4. The data set can be described thus: ITC; representative titration.
The target in the next data set is T2, pUL21^V382E-H6 (HSV-1, UniProt P10205 1-535, V382E).
T2 construct: HSV-1 tegument protein pUL21 with V382E; The tag's end is read from the name pUL21^V382E-H6; also called H6-pUL21^V382E; V382E pUL21-H6; source: E. coli T7 Express lysY/Iq, purified (Ni-NTA, SEC); not shown: H6, C-terminal, kept
T2 sequence: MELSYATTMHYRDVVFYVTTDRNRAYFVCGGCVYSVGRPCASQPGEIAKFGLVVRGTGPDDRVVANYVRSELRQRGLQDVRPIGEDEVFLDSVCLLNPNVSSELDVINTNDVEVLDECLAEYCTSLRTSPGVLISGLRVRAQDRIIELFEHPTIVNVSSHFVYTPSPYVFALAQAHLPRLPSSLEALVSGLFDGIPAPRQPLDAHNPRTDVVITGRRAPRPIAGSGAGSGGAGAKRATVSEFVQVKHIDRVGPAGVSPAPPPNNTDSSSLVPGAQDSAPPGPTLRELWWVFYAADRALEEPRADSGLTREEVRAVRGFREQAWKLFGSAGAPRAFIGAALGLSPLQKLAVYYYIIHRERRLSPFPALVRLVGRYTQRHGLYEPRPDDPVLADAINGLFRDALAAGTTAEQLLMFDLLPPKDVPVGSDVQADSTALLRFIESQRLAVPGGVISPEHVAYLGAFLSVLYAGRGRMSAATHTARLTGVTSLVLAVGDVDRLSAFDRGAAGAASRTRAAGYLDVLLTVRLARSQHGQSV
The data set can be described thus: ITC; 25°C, 20 mM Tris pH 8.5, 500 mM NaCl, 0.5 mM TCEP; CERTL forms or miniCERTL (about 190-380 μM) titrated into pUL21 forms (about 20-33 μM); one-site binding model. To be noted: both partners purified.

The target of data set [4] is T3, H6-pUL21C (HSV-1, UniProt P10205 275-535).
T3 construct: HSV-1 pUL21 C-terminal domain, amino acids 275-535; In pOPTH; N-terminal MAH6QD and C-terminal HGQSV are missing from the crystal structure 5ED7 and were modelled; also called C-terminal domain of pUL21; source: E. coli T7 Express lysY/Iq, purified (Ni-NTA, SEC); not shown: MAH6, N-terminal, kept
T3 sequence: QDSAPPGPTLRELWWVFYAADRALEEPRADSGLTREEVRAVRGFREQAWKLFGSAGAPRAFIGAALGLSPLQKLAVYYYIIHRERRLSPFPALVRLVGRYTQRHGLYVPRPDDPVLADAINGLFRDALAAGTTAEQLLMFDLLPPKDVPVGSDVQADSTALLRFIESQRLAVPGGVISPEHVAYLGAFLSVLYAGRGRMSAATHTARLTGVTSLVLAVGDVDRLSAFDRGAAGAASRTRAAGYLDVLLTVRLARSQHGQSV
The data set is described as above. To be noted: both partners purified.

Data set [5] concerns the target B4. As to the kind of experiment: ITC; hyperphosphorylated CERTL; mean of 3.
The target of data set [6] is B4. The data set can be described thus: ITC; hyperphosphorylated CERTL; representative titration.
Data set [7] concerns the molecule itself. As to the kind of experiment: SEC-MALS; Superose 6 increase 10/300 GL, 20 mM Tris pH 8.5, 500 mM NaCl, 0.5 mM TCEP; samples injected at 2 mg/mL.
For data set [8], the target named is T4, pUL21-H6 (HSV-1, UniProt P10205 1-535).
T4 construct: HSV-1 tegument protein pUL21; The tag's end is read from the name pUL21-H6; also called wild-type pUL21; full-length pUL21; source: E. coli T7 Express lysY/Iq, purified (Ni-NTA, SEC); not shown: H6, C-terminal, kept
T4 sequence: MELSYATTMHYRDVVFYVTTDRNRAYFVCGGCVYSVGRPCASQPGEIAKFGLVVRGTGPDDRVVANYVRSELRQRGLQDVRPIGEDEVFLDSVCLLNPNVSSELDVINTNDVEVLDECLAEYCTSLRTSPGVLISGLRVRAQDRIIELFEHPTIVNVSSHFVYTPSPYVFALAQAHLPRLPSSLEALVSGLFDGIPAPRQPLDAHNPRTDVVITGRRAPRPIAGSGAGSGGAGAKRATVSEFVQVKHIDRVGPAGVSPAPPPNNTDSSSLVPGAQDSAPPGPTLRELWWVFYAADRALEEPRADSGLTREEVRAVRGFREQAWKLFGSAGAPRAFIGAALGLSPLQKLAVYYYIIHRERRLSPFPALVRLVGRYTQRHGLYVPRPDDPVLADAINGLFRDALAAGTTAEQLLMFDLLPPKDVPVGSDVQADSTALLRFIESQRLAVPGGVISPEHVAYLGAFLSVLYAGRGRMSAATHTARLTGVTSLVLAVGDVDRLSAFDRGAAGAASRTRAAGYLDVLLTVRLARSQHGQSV
As to the kind of experiment: ITC; 25°C, 20 mM Tris pH 8.5, 500 mM NaCl, 0.5 mM TCEP; CERTL forms or miniCERTL (about 190-380 μM) titrated into pUL21 forms (about 20-33 μM); one-site binding model. To be noted: both partners purified.

Data set [9] deals with T5, StrepII-CERTL^S132A (human, UniProt Q9Y5P4-1 1-624, S132A).
T5 sequence: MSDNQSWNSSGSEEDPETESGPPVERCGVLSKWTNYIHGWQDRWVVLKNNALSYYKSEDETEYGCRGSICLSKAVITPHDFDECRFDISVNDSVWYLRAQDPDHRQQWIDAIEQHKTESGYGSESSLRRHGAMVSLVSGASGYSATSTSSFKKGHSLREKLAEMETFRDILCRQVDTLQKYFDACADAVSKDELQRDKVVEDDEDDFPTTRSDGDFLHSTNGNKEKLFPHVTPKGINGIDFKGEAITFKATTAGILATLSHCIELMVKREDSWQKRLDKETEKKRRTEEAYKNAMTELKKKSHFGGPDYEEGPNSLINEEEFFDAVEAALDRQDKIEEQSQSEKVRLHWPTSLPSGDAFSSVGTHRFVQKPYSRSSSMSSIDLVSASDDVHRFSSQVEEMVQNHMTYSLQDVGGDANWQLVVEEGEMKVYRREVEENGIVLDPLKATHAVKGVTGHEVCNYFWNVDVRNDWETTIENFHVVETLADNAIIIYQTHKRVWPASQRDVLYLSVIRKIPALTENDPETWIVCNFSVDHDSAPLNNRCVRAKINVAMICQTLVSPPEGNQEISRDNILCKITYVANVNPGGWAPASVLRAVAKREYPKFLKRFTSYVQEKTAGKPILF
The data set can be described thus: ITC; mean of 2.

Data set [10] has as its target T5, StrepII-CERTL^S132A. As to the kind of experiment: ITC; representative titration.

B1: H6-miniCERTL (domain or fragment, human, UniProt Q9Y5P4-1 20-131, looked up)
chain: SGPPVERCGVLSKWTNYIHGWQDRWVVLKNNALSYYKSEDETEYGCRGSICLSKAVITPHDFDECRFDISVNDSVWYLRAQDPDHRQQWIDAIEQHKTESGYGSESSLRRHGTSLPSGDAFSSVGTHRFVQKPYSRSSSMSSIDLVSASDDVHRFSSQVEEMVQNHMTYSLQDVGGDANWQLVVEEGEMKVYRREVEENGIVLDPLKATHAVKGVTGHEVCNYFWNVDVRNDWETTIENFHVVETLADNAIIIYQTHKRVWPASQRDVLYLSVIRKIPALTENDPETWIVCNFSVDHDSAPLNNRCVRAKINVAMICQTLVSPPEGNQEISRDNILCKITYVANVNPGGWAPASVLRAVAKREYPKFLKRFTSYVQEKTAGKPILF
notes: human CERTL (UniProt Q9Y5P4-1), residues 20-131: PH domain without its first 19 residues and the start of the middle region; human CERTL (UniProt Q9Y5P4-1), residues 351-624: the end of the middle region and the STARTL domain; joined directly to residue 131 (MR residues 132-350 left out); Cloned into pOPTH, which encodes the N-terminal MAH6 tag; source: E. coli T7 Express lysY/Iq, purified …
For orientation: Kd means the equilibrium constant for the complex coming apart. Read a high Kd as weaker binding. Take B1: the Kd was 1040 nM in the data set with pUL21-H6 [1], 3150 nM in the data set with H6-pUL21C [2], 879 nM with pUL21-H6 [3] and 4300 nM with H6-pUL21C [4]. Besides, the “fold reduction of binding affinity against wild-type pUL21” value with pUL21^V382E-H6 is about 8 fold.

B2: StrepII-CERTL^P (hyperphosphorylated StrepII-tagged CERTL) (natural protein, human, UniProt Q9Y5P4-1 1-624, looked up)
chain: MSDNQSWNSSGSEEDPETESGPPVERCGVLSKWTNYIHGWQDRWVVLKNNALSYYKSEDETEYGCRGSICLSKAVITPHDFDECRFDISVNDSVWYLRAQDPDHRQQWIDAIEQHKTESGYGSESSLRRHGSMVSLVSGASGYSATSTSSFKKGHSLREKLAEMETFRDILCRQVDTLQKYFDACADAVSKDELQRDKVVEDDEDDFPTTRSDGDFLHSTNGNKEKLFPHVTPKGINGIDFKGEAITFKATTAGILATLSHCIELMVKREDSWQKRLDKETEKKRRTEEAYKNAMTELKKKSHFGGPDYEEGPNSLINEEEFFDAVEAALDRQDKIEEQSQSEKVRLHWPTSLPSGDAFSSVGTHRFVQKPYSRSSSMSSIDLVSASDDVHRFSSQVEEMVQNHMTYSLQDVGGDANWQLVVEEGEMKVYRREVEENGIVLDPLKATHAVKGVTGHEVCNYFWNVDVRNDWETTIENFHVVETLADNAIIIYQTHKRVWPASQRDVLYLSVIRKIPALTENDPETWIVCNFSVDHDSAPLNNRCVRAKINVAMICQTLVSPPEGNQEISRDNILCKITYVANVNPGGWAPASVLRAVAKREYPKFLKRFTSYVQEKTAGKPILF
modifications: hyperphosphorylated; sites not given
notes: human CERTL, synthetic gene, UniProt Q9Y5P4-1; Observed mass by SEC-MALS approaches that of a trimer; not shown: StrepII, N-terminal, kept
A word on the stoichiometry N: it is the number of molecules, sites or subunits per partner or assembly. On to B2, for which the figures for the Kd with pUL21-H6 [5] and with pUL21-H6 [6] were 773 nM and 554 nM, respectively. For the same molecule, the “stoichiometry N” value was about 3 in data set [7] and 0.74 in the data set with pUL21-H6 [8].

B3: StrepII-CERTL^S132A (natural protein, human, UniProt Q9Y5P4-1 1-624, looked up)
chain: MSDNQSWNSSGSEEDPETESGPPVERCGVLSKWTNYIHGWQDRWVVLKNNALSYYKSEDETEYGCRGSICLSKAVITPHDFDECRFDISVNDSVWYLRAQDPDHRQQWIDAIEQHKTESGYGSESSLRRHGAMVSLVSGASGYSATSTSSFKKGHSLREKLAEMETFRDILCRQVDTLQKYFDACADAVSKDELQRDKVVEDDEDDFPTTRSDGDFLHSTNGNKEKLFPHVTPKGINGIDFKGEAITFKATTAGILATLSHCIELMVKREDSWQKRLDKETEKKRRTEEAYKNAMTELKKKSHFGGPDYEEGPNSLINEEEFFDAVEAALDRQDKIEEQSQSEKVRLHWPTSLPSGDAFSSVGTHRFVQKPYSRSSSMSSIDLVSASDDVHRFSSQVEEMVQNHMTYSLQDVGGDANWQLVVEEGEMKVYRREVEENGIVLDPLKATHAVKGVTGHEVCNYFWNVDVRNDWETTIENFHVVETLADNAIIIYQTHKRVWPASQRDVLYLSVIRKIPALTENDPETWIVCNFSVDHDSAPLNNRCVRAKINVAMICQTLVSPPEGNQEISRDNILCKITYVANVNPGGWAPASVLRAVAKREYPKFLKRFTSYVQEKTAGKPILF
notes: human CERTL, synthetic gene, UniProt Q9Y5P4-1, with S132A; Hypophosphorylated: S132 cannot be phosphorylated to start the phosphorylation cascade of the serine-rich motif; also called constitutively hypophosphorylated form of CERTL; source: stably transfected Freestyle 293F cells, doxycycline-induced, purified (StrepTrap HP, Superose 6 SEC); not shown: StrepII, N-terminal, kept
For B3, the results for the “stoichiometry N” value (in [7]; in the data set with pUL21-H6 [8]) were about 3 and 1, respectively.

Turning to B4, the values for the Kd with StrepII-CERTL^S132A [9] and with StrepII-CERTL^S132A [10] were 642 nM and 460 nM, respectively.
